Assay [1] has as its target FcRn. Description: SPR.
In assay [2] the target is FcγR1A. Description: SPR.
The target of assay [3] is FcRn-His (Example 11) (Mus musculus (Mouse)) (UniProt Q61559). The experiment in a line: SPR, BioRad ProteOn XPR 360, His-tagged target on chip.
The target in assay [4] is OX40-His (Example 11) (Mus musculus (Mouse)) (UniProt P47741). The assay is described as above.
The target of assay [5] is PD-L2-His (Example 11) (Mus musculus (Mouse)) (UniProt Q9WUL5). The description is as above.
For assay [6], the target named is mPD-L1-His (murine) (UniProt Q9EP73). The assay is described as above.

pKd: −log10 of the molar value.

This note sets out measurements from patent US20200222503A1.

Chain of FcRn-His (Example 11) (Mus musculus (Mouse)) (Q61559 22-297 limits assumed, form in doubt, chain 1 of 2): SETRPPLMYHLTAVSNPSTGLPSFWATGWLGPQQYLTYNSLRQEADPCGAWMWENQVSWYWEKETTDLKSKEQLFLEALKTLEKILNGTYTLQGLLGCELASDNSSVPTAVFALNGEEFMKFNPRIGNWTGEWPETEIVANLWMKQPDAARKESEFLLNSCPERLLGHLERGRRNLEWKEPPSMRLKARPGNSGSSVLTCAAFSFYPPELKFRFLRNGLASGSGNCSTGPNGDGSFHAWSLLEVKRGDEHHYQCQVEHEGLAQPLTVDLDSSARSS
Chain of FcRn-His (Example 11) (Mus musculus (Mouse)) (beta, as listed by the source limits assumed, form in doubt, chain 2 of 2): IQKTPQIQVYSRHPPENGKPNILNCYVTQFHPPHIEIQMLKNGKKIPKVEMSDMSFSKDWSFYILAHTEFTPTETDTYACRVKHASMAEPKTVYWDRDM
Chain of PD1-Fc (recombinant control protein, Example 11) (Fc fusion) (Q02242 25-169): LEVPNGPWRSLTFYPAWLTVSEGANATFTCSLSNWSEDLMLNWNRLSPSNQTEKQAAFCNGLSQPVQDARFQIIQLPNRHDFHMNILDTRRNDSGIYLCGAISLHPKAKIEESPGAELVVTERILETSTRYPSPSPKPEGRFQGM
Chain of OX40L-Fc (recombinant control protein, Example 11) (Fc fusion) (P43488 51-198): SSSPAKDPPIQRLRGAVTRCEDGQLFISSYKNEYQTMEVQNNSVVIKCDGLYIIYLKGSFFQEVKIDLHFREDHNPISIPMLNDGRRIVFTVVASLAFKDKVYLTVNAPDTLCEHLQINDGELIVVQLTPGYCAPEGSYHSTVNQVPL
Chain of PD-L2-His (Example 11) (Mus musculus (Mouse)) (Q9WUL5 20-221 limits assumed, form in doubt): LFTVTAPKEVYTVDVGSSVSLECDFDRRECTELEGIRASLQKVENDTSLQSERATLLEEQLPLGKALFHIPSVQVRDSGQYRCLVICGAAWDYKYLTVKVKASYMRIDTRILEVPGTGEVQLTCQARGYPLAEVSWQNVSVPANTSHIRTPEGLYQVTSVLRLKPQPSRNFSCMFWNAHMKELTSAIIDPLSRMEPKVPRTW
Chain of OX40-His (Example 11) (Mus musculus (Mouse)) (P47741 20-211 limits assumed, form in doubt): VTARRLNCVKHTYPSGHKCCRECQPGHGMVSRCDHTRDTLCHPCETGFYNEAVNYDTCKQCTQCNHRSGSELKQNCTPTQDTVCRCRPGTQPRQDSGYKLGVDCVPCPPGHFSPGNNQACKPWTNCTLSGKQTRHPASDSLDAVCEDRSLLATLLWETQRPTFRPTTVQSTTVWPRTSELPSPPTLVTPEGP
Chain of mPD-L1-His (murine) (Q9EP73 19-238 limits assumed): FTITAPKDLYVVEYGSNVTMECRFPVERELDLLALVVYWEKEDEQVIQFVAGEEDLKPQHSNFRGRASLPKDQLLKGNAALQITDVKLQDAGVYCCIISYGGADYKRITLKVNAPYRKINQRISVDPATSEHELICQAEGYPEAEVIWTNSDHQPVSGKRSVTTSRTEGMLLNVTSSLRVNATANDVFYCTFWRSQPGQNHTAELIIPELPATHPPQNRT

IgG1: the pKd in assay [1] was 8.31; in assay [2] it was 7.75.

Consider “IgG2A (control protein, Example 11) (antibody)”, for which, in assay [3], the pKd was 8.09, the koff was determined as 0.0242 s⁻¹ and the kon worked out at 3e+06 M⁻¹ s⁻¹.

In assay [4], “OX40L-Fc (recombinant control protein, Example 11) (Fc fusion)” gave a pKd of 8.97, a koff of 0.000712 s⁻¹ and a kon of 674000 M⁻¹ s⁻¹.

Consider “PD1-Fc (recombinant control protein, Example 11) (Fc fusion)”, for which, in assay [5], the pKd is 7.64, the koff amounted to 0.00171 s⁻¹ and the kon was determined as 47900 M⁻¹ s⁻¹. In assay [6], this substance showed a pKd of 7.48, a koff of 0.00108 s⁻¹ and a kon of 32400 M⁻¹ s⁻¹.
